Reference: article PMC4294672 (Molecular Biology of the Cell, 2015)
Where two headings read alike, the source gives them in different places.

B1: hexahistidine (6His)-tagged Gef3 (natural protein)
chain: MSNPRMFQSRGKRVVSDSLPIANSTHTLEDTLKLRPDWTIALSQHETETRSTRTSCSTTTESTIAMRSKQKAIISVLEEFRDSEAAYVHDLHVAQRYYADRLSDRVKKSEWKDVFEIFLVLCKQASLFEIEMHKSLNDEINYILDDQDACLKPKPSVAQLFLSWLPKLSAVYGRYCVIQENIGKKVEKWMKNSSISEYLQECDSMAKIESNSWNLDSFLVKPVQRFLKYPLLLNQLYRSASLGIISDYVLLGEACHKSEIASQRMNELKRRRDIIITALDSVSNSQEVLLLSTDSIDKKIAKLQNSTNIFYVPEHEPILAFVHQLSSSYTNLLNLRSAICDWLKFSRYHYLKFFTFVEAYSVFCKDTKSADKWALISVALDNIAKGAVLRLTEQCQTSVLRPISNGILFFRNPLCVTDVWIKKATAFSKRRQSQVFEEDLESFPLLSNCLLEELPLFLEMARNVTDECILAFAQIQATFYDTIQKVLEPVVAKFNLTDHQDIPSIESIMDFTSLRSSMESSPKSK
B4: GST-Rho4 (enzyme)
chain: MSAFKKSGSKSETSKKLVVVGDGGCGKTCLLIVFSSGTFPERYVPTVFENYITDITYGPNSKVIELALWDTAGQEEYDRLRPLSYPNSNVILLCFSIDCPASLNNVTEKWYPEVQHFCPRTPIVLVGLKADLRKDRNATEVLRTQGLTPVTYQQAQSVALSMNAPYVECSAKENTGVNEVFQLAVGLTIKKSFSFSKKSCVIL

Assays:
Assay in all cases: pull-down
GST-Rho4 = target: B4
3FLAG-Gef3 [1] = target: T1, 3FLAG-Gef3 (S. pombe, UniProt O59679 1-525)
T1 sequence: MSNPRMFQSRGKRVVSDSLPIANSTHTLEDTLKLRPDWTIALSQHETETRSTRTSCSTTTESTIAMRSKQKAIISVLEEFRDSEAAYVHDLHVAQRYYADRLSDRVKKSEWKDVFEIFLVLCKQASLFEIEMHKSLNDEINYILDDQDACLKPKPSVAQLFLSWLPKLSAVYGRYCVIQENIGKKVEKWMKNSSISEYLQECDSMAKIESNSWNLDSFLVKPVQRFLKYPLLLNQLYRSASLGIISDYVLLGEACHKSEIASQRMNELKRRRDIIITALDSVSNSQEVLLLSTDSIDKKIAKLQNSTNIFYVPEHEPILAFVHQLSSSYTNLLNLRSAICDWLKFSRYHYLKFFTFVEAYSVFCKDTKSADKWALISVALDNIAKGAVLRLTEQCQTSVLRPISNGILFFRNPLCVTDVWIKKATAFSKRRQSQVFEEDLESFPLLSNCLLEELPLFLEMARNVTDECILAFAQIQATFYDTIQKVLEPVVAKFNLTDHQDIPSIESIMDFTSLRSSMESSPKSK

3FLAG-Gef3 [2] = target: T1, 3FLAG-Gef3; remark: listed apart in the source
[3] = target: B1

Binder: B1
- fold more pulled down than by the GST control (GST-Rho4): ~35 times

B2: GST-Rho2 (enzyme)
chain: MLQSQPIRRKLVVVGDGACGKTSLLSVFTLGYFPTEYVPTVFENYVSDCRVDGKSVQLALWDTAGQEEYERLRPMSYAKAHIILVGFAIDSPDSLENVSTKWIEEINTLCPNVPFILVGMKADLRSDPVAIEEMRRRNQNFVKSQQAELVAQRIGARKYMECSSLTGDGVDDVFEAATRAALTVRDSENDKSSTKCCIIS
- binding result (3FLAG-Gef3 [1]): binds

B3: GST-Rho1 (enzyme)
chain: MATELRRKLVIVGDGACGKTCLLIVFSKGTFPEVYVPTVFENYVADVEVDGRHVELALWDTAGQEDYDRLRPLSYPDSHVILICFAVDSPDSLDNVQEKWISEVLHFCSSLPILLVACKADLRNDPKIIEELSKTNQHPVTTEEGQAVAQKIGAYKYLECSAKTNEGVREVFESATRAAMLKHKPKVKPSSGTKKKKRCILL
- binding result (3FLAG-Gef3 [2]): binds
- binding result [3]: binds

Binder: B4
- binding result (3FLAG-Gef3 [2]): binds

B5: GST-Rho5 (enzyme)
chain: MTTELRRKLVIVGDGACGKTCLLIVFSKGTFPEVYVPTVFENYVADVEVDGRHIELALWDTAGQEDYDRLRPLSYPDSHVVLICFSVDAPESLDNVQEKWISEVLHFCSNLPILLVGCKVDLRNDPKTIEELSKTSQKPITFEEGQVVAQKIGAYKYLECSAKLNEGVNEVFETAARASMLKFKPASVPKTKKKKHCILL
- binding result [3]: binds
- binding result (3FLAG-Gef3 [1]): binds
